Measurements published in US20160017353A1.

Target: EGF receptor (EGFR) (human) (UniProt P00533)
Assay: cell-based or functional assay

recombinant HSA-EGF fusion protein (human serum albumin fused to the N-terminal end of human EGF), secreted from transgenic rice cell line H-EGF 43 (from UniProt P02768 25-609) (ligand)
HK-2 cell proliferation (cell count), 150 ng/ml total rice medium protein (5 ng H-EGF): 2.9 fold
